According to patent EP0574512B1:

Legend:
[1] = biological target: HIV-1 envelope gp120/gp41 complex (HIV-1); test: cell-based or functional assay
[2] = biological target: MHC class II antigen on the Raji B cell line; test: cell-based or functional assay

Substance: CD4:ζ chimeric receptor
- mean effector to target ratio for 50% release (51Cr release cytolysis by CTL) (effector to target ratio) [1]: 1.9
- cytolysis (51Cr release) [2]: 5 % cytolysis
